In paper PMC6590835, “A unified mechanism for LLPS of ALS/FTLD-causing FUS as well as its modulation by ATP and oligonucleic acids”:

What was measured:
FUS NTD (PLD+RGG1) [1] = target: T1, FUS NTD (PLD+RGG1) (UniProt P35637 1-267); assay: NMR HSQC titration; 1 mM MgCl2; same residues as TssDNA; 20 uM protein, 5 mM sodium phosphate pH 6.0, 1 mM MgCl2 (ZnCl2 added for full-length FUS and F-CTD), 25 C; conditions: protein: recombinant; tags: none; unstructured (CD)
[2] = target: FUS U-CTD (RGG2-ZnF-RGG3, ZnF unfolded) (UniProt P35637 371-526); assay: NMR HSQC titration (CSD); no Zn; 1:10; Arg/Lys residues; 20 uM protein, 5 mM sodium phosphate pH 6.0, 1 mM MgCl2 (ZnCl2 added for full-length FUS and F-CTD), 25 C; conditions: protein: recombinant, tags: none
Chain of FUS U-CTD (RGG2-ZnF-RGG3, ZnF unfolded) (P35637 371-526): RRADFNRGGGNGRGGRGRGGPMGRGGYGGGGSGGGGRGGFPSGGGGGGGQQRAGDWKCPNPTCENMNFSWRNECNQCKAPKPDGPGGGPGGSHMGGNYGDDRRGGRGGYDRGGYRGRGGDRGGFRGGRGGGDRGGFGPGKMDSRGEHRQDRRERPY

[3] = target: T2, FUS F-CTD (RGG2-ZnF-RGG3, ZnF folded) (UniProt P35637 371-526); assay: NMR HSQC titration (line broadening); Zn2+; same pattern as TssDNA; 20 uM protein, 5 mM sodium phosphate pH 6.0, 1 mM MgCl2 (ZnCl2 added for full-length FUS and F-CTD), 25 C; conditions: protein: recombinant; tags: none; unstructured (CD)
T2 sequence (P35637 371-526): as above

FUS full-length [4] = target: T3, FUS full-length (UniProt P35637 1-526); assay: NMR HSQC titration (line broadening); Zn2+; highly similar to TssDNA; 20 uM protein, 5 mM sodium phosphate pH 6.0, 1 mM MgCl2 (ZnCl2 added for full-length FUS and F-CTD), 25 C; conditions: protein: recombinant; tags: none (His-tag removed by stop codon); unstructured (CD)
T3 sequence (P35637 whole entry): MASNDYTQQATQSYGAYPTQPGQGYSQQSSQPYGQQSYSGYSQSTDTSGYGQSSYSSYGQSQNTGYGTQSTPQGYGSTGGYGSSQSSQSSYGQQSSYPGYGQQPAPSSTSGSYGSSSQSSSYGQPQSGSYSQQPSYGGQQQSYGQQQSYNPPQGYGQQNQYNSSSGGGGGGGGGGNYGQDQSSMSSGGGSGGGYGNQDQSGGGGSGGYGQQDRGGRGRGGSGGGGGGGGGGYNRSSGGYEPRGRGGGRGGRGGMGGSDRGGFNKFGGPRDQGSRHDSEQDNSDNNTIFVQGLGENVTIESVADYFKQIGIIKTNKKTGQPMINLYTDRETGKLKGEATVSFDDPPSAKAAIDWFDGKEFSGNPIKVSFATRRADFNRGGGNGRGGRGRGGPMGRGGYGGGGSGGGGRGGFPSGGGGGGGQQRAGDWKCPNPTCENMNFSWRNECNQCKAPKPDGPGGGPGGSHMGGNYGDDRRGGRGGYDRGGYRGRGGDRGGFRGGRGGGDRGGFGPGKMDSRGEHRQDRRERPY

FUS NTD (PLD+RGG1) [5] = target: T1, FUS NTD (PLD+RGG1); assay: NMR HSQC titration; 1 mM MgCl2; saturated at 1:2; RGG1 residues; 20 uM protein, 5 mM sodium phosphate pH 6.0, 1 mM MgCl2 (ZnCl2 added for full-length FUS and F-CTD), 25 C; conditions: protein: recombinant; tags: none; G4 (by CD in the phosphate buffer)
FUS full-length [6] = target: T3, FUS full-length; assay: NMR HSQC competition (displaces ATP); 3 mM ATP; 0.3 mM TssDNA; 20 uM protein, 5 mM sodium phosphate pH 6.0, 1 mM MgCl2 (ZnCl2 added for full-length FUS and F-CTD), 25 C; conditions: protein: recombinant; tags: none (His-tag removed by stop codon); G4 (by CD in the phosphate buffer)
[7] = target: T2, FUS F-CTD (RGG2-ZnF-RGG3, ZnF folded); assay: NMR HSQC titration (line broadening); Zn2+; all peaks lost at 1:1; 20 uM protein, 5 mM sodium phosphate pH 6.0, 1 mM MgCl2 (ZnCl2 added for full-length FUS and F-CTD), 25 C; conditions: protein: recombinant; tags: none; G4 (by CD in the phosphate buffer)

Measured: binding result

T1 sequence (P35637 1-267): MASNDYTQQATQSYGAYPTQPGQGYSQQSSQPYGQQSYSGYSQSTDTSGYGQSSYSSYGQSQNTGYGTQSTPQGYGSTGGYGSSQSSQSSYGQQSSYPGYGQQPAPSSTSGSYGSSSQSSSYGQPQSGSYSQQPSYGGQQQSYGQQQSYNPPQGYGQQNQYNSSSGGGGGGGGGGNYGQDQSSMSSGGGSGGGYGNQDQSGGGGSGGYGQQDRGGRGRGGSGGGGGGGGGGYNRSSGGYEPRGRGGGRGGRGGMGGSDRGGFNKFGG

TTTTTTTTTTTTTTTTTTTTTTTT (ssDNA) [T24]
binds: FUS NTD (PLD+RGG1) [1] | [2]; unstructured (CD) | [3] | FUS full-length [4]

TTAGGGTTAGGGTTAGGGTTAGGG (structured_DNA) [TssDNA (telomeric ssDNA, 24-mer)]
binds: FUS NTD (PLD+RGG1) [5] | [2]; G4 (by CD in the phosphate buffer) | FUS full-length [6] | [7]
